# According to publication PMC3392930 (The Journal of Cell Biology, 2012):
# Like-named read-outs stand apart in the source and are kept apart here.
# How the values were obtained:
# [1] = biological target: S-tagged RSP3_(1–160) (Chlamydomonas reinhardtii) (UniProt P12759); test: pull-down
# cross-linking [2] = biological target: the molecule itself; test: cross-linking
# cross-linking [3] = biological target: the molecule itself; test: cross-linking; remark: listed apart in the source
molecule,measurement,setting,value
His-tagged LC8 (natural protein),stoichiometry N (LC8 per RSP3 (1–160)),[1],3
"RSP3_(1–170)-Cys (domain or fragment, Chlamydomonas reinhardtii, UniProt P12759 1-170, looked up) MVQAKAQQQLYTHAAEPKAVQQRRAKYREDETTQTLPTANIMFDRRVVRGNTYAARILPADATQTQTKGPSPASTKKRTTRTLPPRTPEAVDGRRHIDIQTDVYLEELTDTVPEADTSTQTDAFLDRPPTPLFVPQKTGTDAITQIENGDLFDFDFEVEPILEVLVGKVL",stoichiometry N,cross-linking [2],2
"RSP3_(1–170)-HAHis (domain or fragment, Chlamydomonas reinhardtii, UniProt P12759 1-170, looked up) MVQAKAQQQLYTHAAEPKAVQQRRAKYREDETTQTLPTANIMFDRRVVRGNTYAARILPADATQTQTKGPSPASTKKRTTRTLPPRTPEAVDGRRHIDIQTDVYLEELTDTVPEADTSTQTDAFLDRPPTPLFVPQKTGTDAITQIENGDLFDFDFEVEPILEVLVGKVL",stoichiometry N,cross-linking [3],2
